Four molecules from patent US20180127476A1 (Janssen / Centocor, published 2018) can be followed below.

The test has as its target T1, human NPY2R Gi-protein coupled receptor (human, UniProt P49146 1-381).
T1 sequence (looked up): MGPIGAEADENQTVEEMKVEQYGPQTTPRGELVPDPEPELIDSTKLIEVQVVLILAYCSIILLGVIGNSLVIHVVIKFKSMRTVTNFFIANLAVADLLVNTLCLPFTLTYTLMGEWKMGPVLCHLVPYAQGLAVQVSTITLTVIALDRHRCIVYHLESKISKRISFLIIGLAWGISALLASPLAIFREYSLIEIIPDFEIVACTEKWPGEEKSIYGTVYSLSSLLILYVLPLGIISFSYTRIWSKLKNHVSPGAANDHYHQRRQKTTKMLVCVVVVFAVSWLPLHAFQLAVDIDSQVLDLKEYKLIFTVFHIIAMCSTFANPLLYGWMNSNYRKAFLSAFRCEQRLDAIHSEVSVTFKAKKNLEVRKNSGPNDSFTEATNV
The test is described as follows: cell-based or functional assay.

Numbered stars: 1 amine (or outer) side, 2 acyl side, 3 side chain; on linkers, the order of the positions; unused ones are H or OH. Bridge positions count the residues as written; N and C are the ends. Square brackets hold non-standard residues; d marks the D form. Side chains are listed from the residue outwards. * marks the point of attachment. m‑COPhCH2 = meta-toluoyl group on the Ile3 alpha-amine, its methyl linked by thioether to hCys31, O=C(c1cccc(C[*:3])c1)[*:2]; C18 diacid = O=C(O)CCCCCCCCCCCCCCCCC(=O)*; γGlu = O=C(O)[C@H](CCC(=O)[*:2])N[*:1]; Palmitoyl = CCCCCCCCCCCCCCCC(=O)*; hCys = N[C@@H](CCS)C(=O)O; AEEA = NCCOCCOCC(=O)O

With GISPEAPGEKASPEELNRYYASLRHYLNEVTRQRY-NH2 (lactam N-29; also: psi-(R35,Y36) reduced amide bond) [Cyclic PYY Analog SEQ ID NO:70], the “Y2R EC50 (nM), inhibition of forskolin-induced cAMP (hY2 assay)” value amounted to 0.02 nM. In the case of {m‑COPhCH2}-IAPEAPGEDASPEELNRYYASLRAYLNK([γGlu-Palmitoyl])[hCys]TRQRY-NH2 (bridge N-29; not fully specified (bridges)) [Cyclic PYY Analog SEQ ID NO:21] it was 0.49 nM; in that of {m‑COPhCH2}-IEPEAPGEDASPEELNRYYASLRAYLNK([γGlu-Palmitoyl])[hCys]TRQRY-NH2 (bridge N-29; not fully specified (bridges)) [Cyclic PYY Analog SEQ ID NO:22], 4.4 nM. As to GISPEAPGEK([AEEA-AEEA-γGlu-C18 diacid])ASPEELNRYYASLRHYLNEVTRQRY-NH2 (lactam N-29; also: psi-(R35,Y36) reduced amide bond) [Cyclic PYY Analog SEQ ID NO:72], the “Y2R EC50 (nM), inhibition of forskolin-induced cAMP (hY2 assay)” value came to 1.75 nM.
